Assay results from US8597645.

T1: Cell permeable caspase inhibitor containing the sequence IETD, P08620
T1 chain: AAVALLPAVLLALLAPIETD

T2: p120^CTN (immunoprecipitated), O60716
T2 chain: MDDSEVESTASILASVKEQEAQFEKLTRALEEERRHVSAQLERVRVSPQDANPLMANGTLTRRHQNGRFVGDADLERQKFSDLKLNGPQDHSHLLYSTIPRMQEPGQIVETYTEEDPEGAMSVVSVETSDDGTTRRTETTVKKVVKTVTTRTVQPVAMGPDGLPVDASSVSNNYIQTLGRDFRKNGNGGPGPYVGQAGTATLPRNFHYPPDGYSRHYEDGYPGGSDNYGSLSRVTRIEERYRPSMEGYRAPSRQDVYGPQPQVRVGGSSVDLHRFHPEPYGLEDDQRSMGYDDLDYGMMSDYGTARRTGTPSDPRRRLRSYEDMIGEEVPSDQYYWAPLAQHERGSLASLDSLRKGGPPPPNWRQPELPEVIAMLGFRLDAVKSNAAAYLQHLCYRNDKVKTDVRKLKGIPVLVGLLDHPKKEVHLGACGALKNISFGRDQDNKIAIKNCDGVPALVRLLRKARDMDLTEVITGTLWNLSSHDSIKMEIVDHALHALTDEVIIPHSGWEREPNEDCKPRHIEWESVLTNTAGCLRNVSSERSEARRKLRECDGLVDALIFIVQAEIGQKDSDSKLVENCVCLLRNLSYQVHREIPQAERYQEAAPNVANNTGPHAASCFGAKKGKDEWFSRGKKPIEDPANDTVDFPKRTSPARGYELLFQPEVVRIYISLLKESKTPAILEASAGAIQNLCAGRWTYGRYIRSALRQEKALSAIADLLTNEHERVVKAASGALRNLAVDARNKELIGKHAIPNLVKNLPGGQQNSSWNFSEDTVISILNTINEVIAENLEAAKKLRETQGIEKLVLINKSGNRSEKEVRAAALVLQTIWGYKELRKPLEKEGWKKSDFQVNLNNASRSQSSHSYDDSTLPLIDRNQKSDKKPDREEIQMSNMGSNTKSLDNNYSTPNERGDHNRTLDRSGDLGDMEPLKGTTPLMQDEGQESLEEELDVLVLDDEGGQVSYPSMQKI

T3: β-catenin (immunoprecipitated), P35222
T3 chain: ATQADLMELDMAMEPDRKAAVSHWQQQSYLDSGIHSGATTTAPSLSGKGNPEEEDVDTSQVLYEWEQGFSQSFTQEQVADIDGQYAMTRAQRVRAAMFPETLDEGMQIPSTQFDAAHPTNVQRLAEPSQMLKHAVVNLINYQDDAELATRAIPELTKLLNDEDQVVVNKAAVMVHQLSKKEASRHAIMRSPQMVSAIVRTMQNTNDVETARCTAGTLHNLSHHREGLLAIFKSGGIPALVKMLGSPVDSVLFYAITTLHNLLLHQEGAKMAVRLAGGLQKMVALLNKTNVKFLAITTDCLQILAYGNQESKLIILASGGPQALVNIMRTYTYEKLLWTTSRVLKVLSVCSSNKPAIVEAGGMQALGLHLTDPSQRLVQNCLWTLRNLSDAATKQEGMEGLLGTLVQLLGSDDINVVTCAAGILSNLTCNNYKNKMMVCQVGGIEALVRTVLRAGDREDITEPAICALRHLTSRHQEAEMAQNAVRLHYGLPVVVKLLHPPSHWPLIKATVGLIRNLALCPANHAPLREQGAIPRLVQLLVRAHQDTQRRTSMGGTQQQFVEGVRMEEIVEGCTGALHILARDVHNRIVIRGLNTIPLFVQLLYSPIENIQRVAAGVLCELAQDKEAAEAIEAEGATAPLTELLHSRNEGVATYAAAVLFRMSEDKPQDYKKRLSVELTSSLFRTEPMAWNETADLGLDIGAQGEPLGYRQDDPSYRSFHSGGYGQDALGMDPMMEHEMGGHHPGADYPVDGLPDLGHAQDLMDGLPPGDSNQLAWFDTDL

B1: Caspase-8 (endogenous, in melanocytes and melanoma cells) (protein)
chain: MDFSRNLYDIGEQLDSEDLASLKFLSLDYIPQRKQEPIKDALMLFQRLQEKRMLEESNLSFLKELLFRINRLDLLITYLNTRKEEMERELQTPGRAQISAYRVMLYQISEEVSRSELRSFKFLLQEEISKCKLDDDMNLLDIFIEMEKRVILGEGKLDILKRVCAQINKSLLKIINDYEEFSKERSSSLEGSPDEFSNGEELCGVMTISDSPREQDSESQTLDKVYQMKSKPRGYCLIINNHNFAKAREKVPKLHSIRDRNGTHLDAGALTTTFEELHFEIKPHDDCTVEQIYEILKIYQLMDHSNMDCFICCILSHGDKGIIYGTDGQEAPIYELTSQFTGLKCPSLAGKPKVFFIQACQGDNYQKGIPVETDSEEQPYLEMDLSSPQTRYIPDEADFLLGMATVNNCVSYRNPAEGTWYIQSLCQSLRERCPRGDDILTILTEVNYEVSNKDDKKNMGKQMPQPTFTLRKKLVFPSD
B2: Recombinant caspase-8 (protein)
chain: SESQTLDKVYQMKSKPRGYCLIINNHNFAKAREKVPKLHSIRDRNGTHLDAGALTTTFEELHFEIKPHDDCTVEQIYEILKIYQLMDHSNMDCFICCILSHGDKGIIYGTDGQEAPIYELTSQFTGLKCPSLAGKPKVFFIQACQGDNYQKGIPVETDSEEQPYLEMDLSSPQTRYIPDEADFLLGMATVNNCVSYRNPAEGTWYIQSLCQSLRERCPRGDDILTILTEVNYEVSNKDDKKNMGKQMPQPTFTLRKKLVFPSD

Key:
[1] = biological target: T1, Cell permeable caspase inhibitor …
[2] = biological target: T2, p120^CTN (immunoprecipitated), O60716
[3] = biological target: T3, β-catenin (immunoprecipitated), P35222

Row | Protein | Proteolytic processing of caspase-8 (immunoblot) [1] | In vitro cleavage of the immunoprecipitated protein [2] | In vitro cleavage of the immunoprecipitated protein [3]
1 | B1 | Treatment of cells with a cell permeable inhibitor of caspase-8 prevented its proteolytic processing |  | 
2 | B2 |  | Cleavage of immunoprecipitated β-catenin and p120^CTN by recombinant caspase-8 in vitro also was not demonstrated | Cleavage of immunoprecipitated β-catenin and p120^CTN by recombinant caspase-8 in vitro also was not demonstrated
